Reference: the supplement of paper PMC10567573

B1: TRAF3IP2 (parent)
chain: KQGSMNFRFIPVLFPNAKKEHVPT

Variants of: B1
Test: protein stability index of a GFP-peptide fusion (GPS, HEK-293T) (PSI 1-6); higher = more stable
Details: c terminus: a fixed tail appended
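Note: lentivirally expressed fusions sorted by FACS into six bins by GFP to DsRed ratio, PSI derived from sequencing read proportions per bin multiplied by bin number.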

Compared with KQGSMNFRFIPVLFENAKKEHVPT [P15E], KQGSMNFRFIPVLFRNAKKEHVPT [P15R] is lower in protein stability index: 2.14 for the first, 1.92 for the second.

Compared with KQGSMNFRFIPVLFDNAKKEHVPT [P15D], KQGSMNFRFIPVLFLNAKKEHVPT [P15L] is higher in protein stability index: 2.05 for the first, 2.43 for the second.

Compared with KQGSMNFRFIPVLFFNAKKEHVPT [P15F], KQGSMNFRFIPVLFYNAKKEHVPT [P15Y] is lower in protein stability index: 2.2 for the first, 2.04 for the second.

Compared with KRGSMNFRFIPVLFPNAKKEHVPT [Q2R], KYGSMNFRFIPVLFPNAKKEHVPT [Q2Y] is higher in protein stability index: 1.47 for the first, 2.08 for the second.

First: KLGSMNFRFIPVLFPNAKKEHVPT [Q2L]
Second: KTGSMNFRFIPVLFPNAKKEHVPT [Q2T]
The protein stability index of the first is higher: 2.23 for the first, 1.84 for the second.

Going from KEGSMNFRFIPVLFPNAKKEHVPT [Q2E] to KWGSMNFRFIPVLFPNAKKEHVPT [Q2W], the protein stability index rises from 2.13 to 2.27.

Going from KGGSMNFRFIPVLFPNAKKEHVPT [Q2G] to KCGSMNFRFIPVLFPNAKKEHVPT [Q2C], the protein stability index falls from 2.66 to 1.8.

Going from KQGSMNFRFIPVLFPNAKKEHPPT [V22P] to KQGSMNFRFIPVLFPNAKKEHEPT [V22E], the protein stability index rises from 1.82 to 2.19.

First: KQGSMNFRFIPVLFPNAKKEHAPT [V22A]
Second: KQGSMNFRFIPVLFPNAKKEHDPT [V22D]
The protein stability index of the first is lower: 2.22 for the first, 2.89 for the second.

Compared with KQGSMNFRFIPVLFPNAKKEHCPT [V22C], KQGSMNFRFIPVLFPNAKKEHIPT [V22I] is higher in protein stability index: 2 for the first, 2.11 for the second.

Going from KQGSMNFRFIPVLFPHAKKEHVPT [N16H] to KQGSMNFRFIPVLFPDAKKEHVPT [N16D], the protein stability index falls from 1.66 to 1.58.

Compared with KQGSMNFRFIPVLFPKAKKEHVPT [N16K], KQGSMNFRFIPVLFPRAKKEHVPT [N16R] is higher in protein stability index: 1.72 for the first, 2.59 for the second.

Compared with KQGSMNFRFIPVLFPEAKKEHVPT [N16E], KQGSMNFRFIPVLTPNAKKEHVPT [F14T] is higher in protein stability index: 1.85 for the first, 2.76 for the second.

Compared with KQGSMNFRFIPVLPPNAKKEHVPT [F14P], KQGSMNFRFIPVLEPNAKKEHVPT [F14E] is higher in protein stability index: 2.71 for the first, 3.19 for the second.

Compared with KQGSMNFRFIPVLHPNAKKEHVPT [F14H], KQGSMNFRFIPVLNPNAKKEHVPT [F14N] is lower in protein stability index: 2.12 for the first, 2.06 for the second.

Going from KQGSMNFRFIPVLGPNAKKEHVPT [F14G] to KQGSMNFRFIPVLKPNAKKEHVPT [F14K], the protein stability index rises from 2.29 to 2.62.

Going from KQGSMNFRFIPVLSPNAKKEHVPT [F14S] to KQGSMNFRFIPVLRPNAKKEHVPT [F14R], the protein stability index falls from 2.42 to 1.8.

First: KQGSMNFRFIPVLMPNAKKEHVPT [F14M]
Second: KQGSMNFRFIPVLFPNAVKEHVPT [K18V]
The protein stability index of the first is higher: 2.56 for the first, 1.65 for the second.

First: KQGSMNFRFIPVLFPNAFKEHVPT [K18F]
Second: KQGSMNFRFIPVLFPNALKEHVPT [K18L]
The protein stability index of the first is higher: 1.77 for the first, 1.61 for the second.

First: KQGSMNFRFIPVLFPNARKEHVPT [K18R]
Second: KQGSMNFRFIPVLFPNAIKEHVPT [K18I]
The protein stability index of the first is lower: 1.6 for the first, 2.27 for the second.

Going from KQGSMNFRFIPVLFPNAWKEHVPT [K18W] to KQGSMNFRFIPVLFPNAPKEHVPT [K18P], the protein stability index rises from 1.65 to 1.77.

Compared with KQGSMNFRFIPVLFPNATKEHVPT [K18T], KQGSMNFRFIPVLFPNACKEHVPT [K18C] is lower in protein stability index: 1.85 for the first, 1.71 for the second.

Compared with KQGSMNKRFIPVLFPNAKKEHVPT [F7K], KQGSMNHRFIPVLFPNAKKEHVPT [F7H] is lower in protein stability index: 3.06 for the first, 2.87 for the second.

Compared with KQGSMNNRFIPVLFPNAKKEHVPT [F7N], KQGSMNIRFIPVLFPNAKKEHVPT [F7I] is lower in protein stability index: 2.92 for the first, 2.12 for the second.

First: KQGSMNRRFIPVLFPNAKKEHVPT [F7R]
Second: KQGSMNVRFIPVLFPNAKKEHVPT [F7V]
The protein stability index of the first is higher: 2.69 for the first, 2.13 for the second.

First: KQGSMNSRFIPVLFPNAKKEHVPT [F7S]
Second: KQGSMNARFIPVLFPNAKKEHVPT [F7A]
The protein stability index of the first is higher: 3.12 for the first, 2.95 for the second.

Going from KQGSMNFRFIPVLFPNAKKRHVPT [E20R] to KQGSMNFRFIPVLFPNAKKFHVPT [E20F], the protein stability index rises from 1.65 to 1.93.

First: KQGSMNFRFIPVLFPNAKKYHVPT [E20Y]
Second: KQGSMNFRFIPVLFPNAKKGHVPT [E20G]
The protein stability index of the first is lower: 1.77 for the first, 2.24 for the second.

Compared with KQGSMNFRFIPVLFPNAKKQHVPT [E20Q], KQGSMNFRFIPVLFPNAKKEHVPL [T24L] is lower in protein stability index: 2.02 for the first, 1.67 for the second.

Compared with KQGSMNFRFIPVLFPNAKKEHVPI [T24I], KQGSMNFRFIPVLFPNAKKEHVPR [T24R] is higher in protein stability index: 1.7 for the first, 2.33 for the second.

First: KQGSMNFRFIPVLFPNAKKEHVPG [T24G]
Second: KQGSMNFRFIPVLFPNAKKEHVPW [T24W]
The protein stability index of the first is higher: 2.14 for the first, 2.06 for the second.

Compared with GQGSMNFRFIPVLFPNAKKEHVPT [K1G], IQGSMNFRFIPVLFPNAKKEHVPT [K1I] is lower in protein stability index: 2.19 for the first, 1.63 for the second.

Going from VQGSMNFRFIPVLFPNAKKEHVPT [K1V] to WQGSMNFRFIPVLFPNAKKEHVPT [K1W], the protein stability index rises from 1.95 to 2.08.

Going from YQGSMNFRFIPVLFPNAKKEHVPT [K1Y] to NQGSMNFRFIPVLFPNAKKEHVPT [K1N], the protein stability index falls from 2.57 to 1.94.

Compared with MQGSMNFRFIPVLFPNAKKEHVPT [K1M], SQGSMNFRFIPVLFPNAKKEHVPT [K1S] is higher in protein stability index: 1.94 for the first, 2.16 for the second.

Going from CQGSMNFRFIPVLFPNAKKEHVPT [K1C] to FQGSMNFRFIPVLFPNAKKEHVPT [K1F], the protein stability index rises from 2.01 to 2.23.

Compared with KQGSMNFRFIHVLFPNAKKEHVPT [P11H], KQGSMNFRFITVLFPNAKKEHVPT [P11T] is lower in protein stability index: 2.14 for the first, 1.86 for the second.

First: KQGSMNFRFIAVLFPNAKKEHVPT [P11A]
Second: KQGSMNFRFIIVLFPNAKKEHVPT [P11I]
The protein stability index of the first is lower: 2.39 for the first, 3.73 for the second.

Going from KQGSMNFRFICVLFPNAKKEHVPT [P11C] to KQGSMNFRFILVLFPNAKKEHVPT [P11L], the protein stability index falls from 3.83 to 2.75.

Going from KQGSMNFRFIRVLFPNAKKEHVPT [P11R] to KQGSMNFRFIPVLFPNAKVEHVPT [K19V], the protein stability index falls from 2.14 to 1.65.

Going from KQGSMNFRFIPVLFPNAKLEHVPT [K19L] to KQGSMNFRFIPVLFPNAKMEHVPT [K19M], the protein stability index falls from 1.78 to 1.59.

First: KQGSMNFRFIPVLFPNAKYEHVPT [K19Y]
Second: KQGSMNFRFIPVLFPNAKGEHVPT [K19G]
The protein stability index of the first is higher: 1.99 for the first, 1.95 for the second.

Going from KQGSMNFRFIPVLFPNAKHEHVPT [K19H] to KQGSMNFRFIPVLFPNAKIEHVPT [K19I], the protein stability index falls from 2.34 to 1.59.

Compared with KQGSMNFRFIPVLFPNAKSEHVPT [K19S], KQGAMNFRFIPVLFPNAKKEHVPT [S4A] is higher in protein stability index: 1.98 for the first, 2.68 for the second.

Compared with KQGKMNFRFIPVLFPNAKKEHVPT [S4K], KQGDMNFRFIPVLFPNAKKEHVPT [S4D] is higher in protein stability index: 1.74 for the first, 2.4 for the second.

First: KQGCMNFRFIPVLFPNAKKEHVPT [S4C]
Second: KQGQMNFRFIPVLFPNAKKEHVPT [S4Q]
The protein stability index of the first is lower: 1.73 for the first, 2.59 for the second.

First: KQGSMNFLFIPVLFPNAKKEHVPT [R8L]
Second: KQGSMNFHFIPVLFPNAKKEHVPT [R8H]
The protein stability index of the first is lower: 2.22 for the first, 2.41 for the second.
